For assay [1], the target named is gp120 from CC1/85 cl.6 (HIV-1).
In assay [2] the target is gp120 from D1/85.16 cl.23 (HIV-1).
Assay [3] addresses gp120 from CC101.19 cl.7 (HIV-1).
The target of assay [4] is gp120 from CC1/85 cl.7 (HIV-1).

For one substance, IC50 for inhibition of replication of the clonal virus in PBMC (p24 antigen); inhibits gp120-CD4 binding results are on record in PMC2718843.

With sCD4 (domain or fragment), the IC50 for inhibition of replication of the clonal virus in PBMC (p24 antigen); inhibits gp120-CD4 binding in assay [1] is > 25 µg/mL; in assay [2], 10 µg/mL; in assay [3], 0.1 µg/mL; in assay [4] it was 0.1 µg/mL.
